Assay results published in US20100323957A1, “NOVEL ASSAY FOR INHIBITORS OF EGFR” (THE REGENTS OF THE UNIVERSITY OF CALIFORNIA THE OFFICE OF …, priority 2007, published 2010).
Values belong to the molecule of their own block, whether it stands above or below them.

Columns and labels:
[1] = biological target: T1, EGFR kinase domain attached to lipid vesicles (activated EGFR kinase) (Homo sapiens, UniProt P00533); test: Vesicle-based kinase assay: EGFR kinase domain attached to lipid vesicles; type: biochemical; conditions: for inhibition of activity of kinase domain attached to lipid vesicles: result in words
T1 construct: DNA encoding residues 672-998 of human EGFR was cloned into pFAST BAC HT; made in house; host or cells: Sf9 insect cells (baculovirus)
From the text: (§1) The wild-type and mutant forms of the EGFR kinase domain were expressed and purified using methods known in the art and described in Zhang et al., (2006). The 60-residue MIG6 peptide was expressed in bacteria as a glutathione S-transferase (GST)-fusion protein, purified and treated with the TEV protease to remove the GST-moiety. The wild-type and Y358A mutant MIG6(segments 1-2) peptides were fused to a Trp DLE leader peptide and expressed as inclusion bodies and purified as described. All other MIG6 peptides were produced using solid phase synthesis. […] The binding affinities between the kinase domain and fluorescein-labeled MIG6 peptides were measured by monitoring the change of fluorescence anisotropy during the titration and fitting the data to a single-site binding model. Kinase assays in solution and on vesicle were performed using methods known in the art and described herein. Cell-based inhibition assays were performed using Cos-7 cells co-transfected with constructs containing full-length EGFR and MIG6.

lung cancer = conditions: patients with lung cancer; cited from earlier work
[2] = biological target: T2, wild-type EGFR kinase domain (Homo sapiens, UniProt P00533); test: Fluorescence anisotropy binding titration, wild-type kinase domain; conditions: result in words
T2 construct: DNA encoding residues 672-998 of human EGFR was cloned into pFAST BAC HT; 6-His tag, linker and TEV cleavage site (N, cleaved yes); made in house; host or cells: Sf9 insect cells (baculovirus)
From the text: as §1
Fluorescein-labelled 30-residue wild-type, M346L, M346A, F352A and Y358A MIG6 peptides were diluted to final concentrations of 5, 8, 3.1, 3.5 and 2.7 μM in a buffer containing 10 mM Tris, 50 mM NaCl and 2 mM DTT, pH7.5. These peptides in the cuvette were then titrated with the wild-type or mutant forms of the EGFR kinase domain at 20 uC. For the competition assays, the labeled 30-mer wild-type peptide ([…]) and kinase domain ([…]) were mixed and titrated with unlabelled competitor peptides. The fluorescence anisotropy at each titration step was monitored. The I682Q and K799E mutant kinases used in the binding assays contain the N-terminal 63H is tag and linker fragment before the kinase domain, whereas this N-terminal fragment in the wild-type and V924R mutant kinases was removed by Tobacco Etch Virus protease treatment.

[3] = biological target: T3, EGFR kinase domain V924R mutant (Homo sapiens, UniProt P00533, V948R); test: Fluorescence anisotropy binding titration, V924R mutant kinase domain; conditions: result in words
T3 construct: DNA encoding residues 672-998 of human EGFR was cloned into pFAST BAC HT; 6-His tag, linker and TEV cleavage site (N, cleaved yes); made in house; host or cells: Sf9 insect cells (baculovirus)
From the text: as §1
(§2) Fluorescein-labelled 30-residue wild-type, M346L, M346A, F352A and Y358A MIG6 peptides were diluted to final concentrations of 5, 8, 3.1, 3.5 and 2.7 μM in a buffer containing 10 mM Tris, 50 mM NaCl and 2 mM DTT, pH7.5. […] The fluorescence anisotropy at each titration step was monitored. […]

[4] = biological target: T4, EGFR kinase domain L834R mutant (Homo sapiens, UniProt P00533, L858R); test: Kinase assay in solution, L834R mutant kinase domain; type: biochemical; conditions: result in words
T4 construct: DNA encoding residues 672-998 of human EGFR was cloned into pFAST BAC HT; made in house; host or cells: Sf9 insect cells (baculovirus)
Protocol: To test the role of segment 2, we produced a longer peptide (residues 336-412, MIG6(segments 1-2)), and analyzed its effect on a variant of the EGFR kinase domain that contains a mutation (L834R) that renders it constitutively active in the absence of concentration on vesicles. MIG6(segments 1-2) inhibits this mutant kinase domain with an IC50 value of ˜200 nM (FIG. 25a). MIG6(segments 1-2) bearing a mutation within segment 1 (Y358A) inhibited L834R much less efficiently (IC50˜5 μM).
(§3) Kinase assays were performed using methods known in the art and described herein. The substrate peptide was kept at 1 mM in all the experiments. The reported rates are the initial velocities normalized by the kinase concentrations. The wild-type kinase concentrations in the vesicle-based and solution-based assays were […] respectively.
(§4) A continuous enzyme-coupled kinase assay was performed to measure the kinase activity of the proteins as described in Barker et al., ((1995) Biochemistry, Vol. 34(54): 14843-51), with modifications, as described herein. The ATP concentration was kept to 0.5 mM.
(§5) The buffer used contained 10 mM MgCl2, 20 mM Tris, and pH 7.5. […] The substrate peptide was derived from the region spanning Y1173 in EGFR ([…]). All proteins used in this assay contained the N-terminal (His)6 tag unless otherwise noted.

[5] = biological target: T5, EGFR kinase domain I682Q mutant (Homo sapiens, UniProt P00533, I706Q); test: Fluorescence anisotropy binding titration, I682Q mutant kinase domain; conditions: result in words
T5 construct: DNA encoding residues 672-998 of human EGFR was cloned into pFAST BAC HT; made in house; host or cells: Sf9 insect cells (baculovirus)
From the text: as §1, §2

[6] = biological target: T5, EGFR kinase domain I682Q mutant; test: Kinase assay in solution, I682Q mutant kinase domain (basal activity); type: biochemical; conditions: result in words
Protocol: The EGFR kinase domain has very low activity in solution, but is activated on increasing its local concentration by tethering it to lipid vesicles, which promotes the formation of the asymmetric dimer. […] An EGFR kinase domain bearing an I682Q mutation is not stimulated by concentration at the membrane because it is unable to form the asymmetric dimer. […] Thus, MIG6(segment 1) is only able to inhibit the kinase domain in the context of asymmetric dimer formation.
as §3, §4, §5

[7] = tested on: cancer cells in colon cancer; conditions: in vitro; cited from earlier work
gastric cancer cells = conditions: cited from earlier work
biliary tract cancer = conditions: in vitro; cited from earlier work

Molecule: KSLPSYLNGVMPPTQSFAPDPKYVSS (chains of the parent or of the whole protein) [40-mer peptide]
- IC50 ([1]; vesicle-based kinase assay, read-out: IC50 for inhibiting the activated EGFR kinase (kinase domain attached to lipid vesicles)): ~10 µM

Molecule: C#Cc1cccc(Nc2ncnc3cc(OCCOC)c(OCCOC)cc23)c1 [Erlotinib]
- survival times (lung cancer): increases survival times by several months

Molecule: M346A: 30-residue MIG6 segment 1 peptide with M346A mutation (SPKSLPSYLNGVAPPTQSFAPDPKYVSSKA; UniProt Q9UJM3 334-363, looked up, variant M346A)
- inhibition of activity of kinase domain attached to lipid vesicles [1]: do not inhibit kinase activity significantly
- binding to the wild-type EGFR kinase domain [2]: abrogates binding

Molecule: F352A: 30-residue MIG6 segment 1 peptide with F352A mutation (SPKSLPSYLNGVMPPTQSAAPDPKYVSSKA; UniProt Q9UJM3 334-363, looked up, variant F352A)
- inhibition of activity of kinase domain attached to lipid vesicles [1]: do not inhibit kinase activity significantly
- binding to the wild-type EGFR kinase domain [2]: abrogates binding

- binding to EGFR kinase domain bearing V924R mutation [3]: abolishes peptide binding
Molecule: 30-residue fluorescein-labelled MIG6 peptide: fluorescein-labelled MIG6 peptide, residues 334-363, spanning the entire binding epitope of segment 1

Molecule: MIG6(segment 1): 25-residue epitope of MIG6 (residues 337-361) binding the EGFR kinase domain; tested as the 30-residue peptide
- binding to EGFR kinase domain bearing V924R mutation [3]: does not bind
- inhibition of L834R mutant kinase domain [4]: did not inhibit
- binding affinity for I682Q mutant kinase domain compared with wild-type [5]: same binding affinity
- inhibition of basal activity of I682Q mutant kinase domain in solution [6]: not inhibited
- binding to the wild-type EGFR kinase domain [2]: micromolar affinity

Molecule: COc1cc2ncnc(Nc3ccc(F)c(Cl)c3)c2cc1OCCCN1CCOCC1 [gefitinib]
- growth of cancer cells [7]: halt the growth of cancer cells
- apoptosis of gastric cancer cells (gastric cancer cells): increase apoptosis
- growth of cancer cells (biliary tract cancer): halt the growth of cancer cells

Molecule: Y358A: 30-residue MIG6 segment 1 peptide with Y358A mutation (SPKSLPSYLNGVMPPTQSFAPDPKAVSSKA; UniProt Q9UJM3 334-363, looked up, variant Y358A)
- inhibition of activity of kinase domain attached to lipid vesicles [1]: do not inhibit kinase activity significantly
- binding to the wild-type EGFR kinase domain [2]: abrogates binding
